This test has as its target full-length recombinant MYC-KEAP1 (human, UniProt Q14145 1-624). Put plainly: pull-down.

full-length recombinant MYC-KEAP1, sequence (Q14145 whole entry): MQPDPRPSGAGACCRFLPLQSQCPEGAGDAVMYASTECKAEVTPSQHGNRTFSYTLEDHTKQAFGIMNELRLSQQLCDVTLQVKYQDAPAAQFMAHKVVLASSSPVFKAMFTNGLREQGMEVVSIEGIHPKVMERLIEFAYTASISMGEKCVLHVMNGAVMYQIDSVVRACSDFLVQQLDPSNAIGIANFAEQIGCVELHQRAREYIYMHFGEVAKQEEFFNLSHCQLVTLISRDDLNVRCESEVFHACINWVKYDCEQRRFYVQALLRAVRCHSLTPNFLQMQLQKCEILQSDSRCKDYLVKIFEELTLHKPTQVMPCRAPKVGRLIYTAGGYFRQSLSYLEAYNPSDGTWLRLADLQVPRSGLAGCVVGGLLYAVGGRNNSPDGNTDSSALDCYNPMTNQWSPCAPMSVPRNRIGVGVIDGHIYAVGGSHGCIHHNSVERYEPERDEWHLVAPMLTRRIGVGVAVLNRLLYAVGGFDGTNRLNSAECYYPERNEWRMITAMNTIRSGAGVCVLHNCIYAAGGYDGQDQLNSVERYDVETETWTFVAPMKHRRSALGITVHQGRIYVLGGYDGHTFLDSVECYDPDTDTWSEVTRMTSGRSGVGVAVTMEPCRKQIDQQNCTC

B1: full-length recombinant GST-ATDC (natural protein)
chain: MEAADASRSNGSSPEARDARSPSGPSGSLENGTKADGKDAKTTNGHGGEAAEGKSLGSALKPGEGRSALFAGNEWRRPIIQFVESGDDKNSNYFSMDSMEGKRSPYAGLQLGAAKKPPVTFAEKGELRKSIFSESRKPTVSIMEPGETRRNSYPRADTGLFSRSKSGSEEVLCDSCIGNKQKAVKSCLVCQASFCELHLKPHLEGAAFRDHQLLEPIRDFEARKCPVHGKTMELFCQTDQTCICYLCMFQEHKNHSTVTVEEAKAEKETELSLQKEQLQLKIIEIEDEAEKWQKEKDRIKSFTTNEKAILEQNFRDLVRDLEKQKEEVRAALEQREQDAVDQVKVIMDALDERAKVLHEDKQTREQLHSISDSVLFLQEFGALMSNYSLPPPLPTYHVLLEGEGLGQSLGNFKDDLLNVCMRHVEKMCKADLSRNFIERNHMENGGDHRYVNNYTNSFGGEWSAPDTMKRYSMYLTPKGGVRTSYQPSSPGRFTKETTQKNFNNLYGTKGNYTSRVWEYSSSIQNSDNDLPVVQGSSSFSLKGYPSLMRSQSPKAQPQTWKSGKQTMLSHYRPFYVNKGNGIGSNEAP
With B1, the Kd (as a rule, the constant that tells how readily two partners part at equilibrium) stood at 2.87 nM.

These data come from publication PMC7849366 (Genes & Development, 2021).
